Experiment [1] addresses Aleuria aurantia lectin (Aleuria aurantia) (UniProt P18891). As to the kind of experiment: BLI; competition with L-Fuc: AAL-loaded biosensor blocked with 0.1 M L-Fuc in the second baseline step, and the mucin sample incubated with L-Fuc (BSM 1 μM to 0.1 M; MUC5B 1 μM to 100 μM). In general terms: BLI is a label-free optical method that tracks binding on a fibre tip over time.

Experiment [2] has the same target. As to the kind of experiment: BLI; biotinylated AAL (1.5 μg/mL) loaded on High Precision Streptavidin (SAX) biosensors, mucin in solution; Octet RED96, kinetics mode, 25°C, 1000 rpm, sample diluent.

Chain of UniProt P18891 (P18891 whole entry): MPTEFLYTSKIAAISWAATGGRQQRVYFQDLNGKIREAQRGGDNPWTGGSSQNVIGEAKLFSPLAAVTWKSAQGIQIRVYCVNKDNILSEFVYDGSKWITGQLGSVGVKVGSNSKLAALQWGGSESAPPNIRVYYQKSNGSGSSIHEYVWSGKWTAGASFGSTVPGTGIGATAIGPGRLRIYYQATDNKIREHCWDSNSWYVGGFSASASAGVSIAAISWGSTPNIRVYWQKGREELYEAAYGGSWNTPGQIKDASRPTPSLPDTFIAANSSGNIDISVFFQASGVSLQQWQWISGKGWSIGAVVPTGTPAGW

Consider “Bovine Submaxillary Mucin (natural protein)”, for which the fold lower association with 100 μM Fuc than without Fuc in experiment [1] was 5 times lower. Further, the fold lower binding response than MUC5B in experiment [2] was 10 times lower.

For the origin of these results see publication PMC5760085.
